For this data set, the target named is double-stranded RNA adenosine deaminase (dsrad, 140 kDa Z-DNA binding protein) (Gallus gallus) (UniProt A0A8V1AB28). Put plainly: competition. Conditions: bandshift competition.
Chain of UniProt A0A8V1AB28 (A0A8V1AB28 entry or part of it): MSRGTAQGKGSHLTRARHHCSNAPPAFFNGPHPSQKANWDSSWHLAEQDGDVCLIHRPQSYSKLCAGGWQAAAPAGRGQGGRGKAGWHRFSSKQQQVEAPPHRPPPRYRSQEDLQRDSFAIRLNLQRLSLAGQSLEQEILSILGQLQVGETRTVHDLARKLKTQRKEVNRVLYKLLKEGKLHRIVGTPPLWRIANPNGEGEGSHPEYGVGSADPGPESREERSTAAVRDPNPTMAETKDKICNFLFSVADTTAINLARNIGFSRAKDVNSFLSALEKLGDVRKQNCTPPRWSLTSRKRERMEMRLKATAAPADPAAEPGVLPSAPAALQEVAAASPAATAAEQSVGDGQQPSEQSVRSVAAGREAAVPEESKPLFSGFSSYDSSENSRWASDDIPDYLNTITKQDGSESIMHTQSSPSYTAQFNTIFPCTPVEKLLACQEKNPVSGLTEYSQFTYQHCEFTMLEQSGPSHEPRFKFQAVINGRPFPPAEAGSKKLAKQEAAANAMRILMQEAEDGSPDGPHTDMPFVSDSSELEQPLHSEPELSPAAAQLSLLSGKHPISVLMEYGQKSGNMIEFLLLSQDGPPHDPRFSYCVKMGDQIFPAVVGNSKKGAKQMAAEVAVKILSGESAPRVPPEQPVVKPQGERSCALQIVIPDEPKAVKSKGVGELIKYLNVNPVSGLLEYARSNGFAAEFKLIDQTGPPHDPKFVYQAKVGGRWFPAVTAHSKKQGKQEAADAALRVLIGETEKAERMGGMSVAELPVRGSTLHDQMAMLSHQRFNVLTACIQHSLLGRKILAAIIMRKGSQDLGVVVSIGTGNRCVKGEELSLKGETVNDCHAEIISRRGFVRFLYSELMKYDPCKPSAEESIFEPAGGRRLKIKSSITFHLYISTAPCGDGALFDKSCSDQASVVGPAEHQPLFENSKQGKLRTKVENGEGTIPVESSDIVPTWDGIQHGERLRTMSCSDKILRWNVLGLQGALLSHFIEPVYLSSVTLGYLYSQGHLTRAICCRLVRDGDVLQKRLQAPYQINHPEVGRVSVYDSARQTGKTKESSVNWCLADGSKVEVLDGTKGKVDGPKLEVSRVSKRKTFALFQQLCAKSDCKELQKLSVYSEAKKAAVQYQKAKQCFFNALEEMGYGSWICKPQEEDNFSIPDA

For pDHg16 relaxed by topoisomerase I, the binding signal (fold weaker than supercoiled) (relaxed with calf thymus topoisomerase I) turned out to be 100.

With “pDHg16 supercoiled plasmid with d(CG)13 insert”, the binding signal (reference, bacterial superhelical density) turned out to be 1 fold.

For the origin of these results see patent US5726050.
